# Measurements reported in paper PMC6960015 (Nature cell biology, 2019).
# B1: GST-ArhGAP12 ΔNΔP (568-791) (domain or fragment)
# chain: QKKTKKNLKKFLTRRPTLQAVREKGYIKDQVFGSNLANLCQRENGTVPKFVKLCIEHVEEHGLDVDGIYRVSGNLAVIQKLRFAVNHDEKLDLNDSKWEDIHVITGALKMFFRELPEPLFTFNHFNDFVNAIKQEPRQRVTAVKDLIRQLPKPNQDTMQILFRHLKRVIENGEKNRMTYQSIAIVFGPTLLKPERETGNIAVHTVYQNQIVELILLELSTVFGR
# Target: Rabbit skeletal muscle LatB-actin (rabbit, UniProt P68135 1-377)
# Assay: BLI
binder,measurement,value
B1,Kd,40.3 nM
